Results from paper PMC9784774.

How the values were obtained:
Test in all cases: SPR; Biacore X100, CM5 chip, RT, 1:1 binding model; methods: antibody (4 μg/mL) captured by anti-human Fc IgG to about 100 RU, pentamer or trimer in five 2-fold dilutions injected at 30 μL/min, 90 s association, 600 s dissociation (the legend of Fig. 5 tells the reverse orientation)
[1] = target: pentamer mutant UL131A_E23A (human cytomegalovirus | human cytomegalovirus strain VR1814)
[2] = target: pentamer mutant UL131A_K27A (human cytomegalovirus | human cytomegalovirus strain VR1814)
[3] = target: pentamer mutant UL128_K47A (human cytomegalovirus | human cytomegalovirus strain VR1814)
[4] = target: pentamer mutant UL128_T94A (human cytomegalovirus | human cytomegalovirus strain VR1814)

B1: MAb 9I6 (antibody, V domains shown)
VH: EVQLVQSGAEVKKPGESLKISCRESGDTFPAYWIAWVRQMPGKGLEWMGIIYPIDSETTYSPSFQGQVTISADKSINTAYLQWSSLKASDSAIYYCARGTSTGLREAFHIWGQGTMVTVSS
VL: DVVMTQSPLSLAVTLGQPAYISCRSSQSLGYSDGNTYLNWFQQRPGQSPRRLIYEVSNRDSGVPDRFSGSGSGTDFTLKISRVEAEDVGTYYCMQGTHWPPMCSFGQGTKLEIK
For B1, which Kd [1] is on record?
Its Kd is 2.83 nM.

And the koff [1]?
Its koff is 0.000115 s⁻¹.

And the kon [1]?
Its kon is 40700 M⁻¹ s⁻¹.

What about the Kd [2] of the same binder?
Its Kd is 1.91 nM.

What about the koff [2] of the same binder?
Its koff is 0.000181 s⁻¹.

What about the kon [2] of the same binder?
Its kon is 94700 M⁻¹ s⁻¹.

And the Kd [3]?
Its Kd is 1.5 nM.

And the koff [3]?
Its koff is 7.38e-05 s⁻¹.

And the kon [3]?
Its kon is 49200 M⁻¹ s⁻¹.

What about the Kd [4] of the same binder?
The Kd was 0.57 nM.

And the koff [4]?
Its koff is 3e-05 s⁻¹.

And the kon [4]?
The kon was 53100 M⁻¹ s⁻¹.
